Measurements reported in patent US20200369765A1.
Each block holds one substance with its values, some of them ahead of it.

How the values were obtained:
Human Siglec-7 (human) = Human Siglec-7 (human) (UniProt Q9Y286); experiment: flow cytometry on fresh purified human NK cells (CD3-/CD56+), isotype control staining
Human Siglec-9 (human) [1] = target: Human Siglec-9 (human) (UniProt Q9Y336); experiment: flow cytometry titration on neuraminidase-treated moDCs, goat F(ab')2 anti-human IgG (Fc) PE; table under the right panel; the curve itself is flat
Chain of Human Siglec-9 (human) (Q9Y336 18-463): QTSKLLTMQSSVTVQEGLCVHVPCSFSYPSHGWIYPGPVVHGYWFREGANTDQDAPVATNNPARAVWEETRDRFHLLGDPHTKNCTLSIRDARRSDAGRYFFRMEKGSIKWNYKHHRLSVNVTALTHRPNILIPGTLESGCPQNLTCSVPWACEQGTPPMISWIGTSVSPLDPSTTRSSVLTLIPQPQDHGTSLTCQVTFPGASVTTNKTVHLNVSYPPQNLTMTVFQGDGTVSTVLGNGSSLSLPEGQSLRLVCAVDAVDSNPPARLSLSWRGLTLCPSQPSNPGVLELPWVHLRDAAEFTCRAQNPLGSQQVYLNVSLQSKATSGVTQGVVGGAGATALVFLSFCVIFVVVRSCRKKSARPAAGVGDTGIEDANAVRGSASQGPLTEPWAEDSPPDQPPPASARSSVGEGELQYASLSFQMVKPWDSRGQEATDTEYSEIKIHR

Human Siglec-9 (human) [2] = target: Human Siglec-9 (human) (UniProt Q9Y336); experiment: flow cytometry titration on untreated monocyte-derived dendritic cells (moDCs), goat F(ab')2 anti-human IgG (Fc) PE; table under the left panel; the curve itself is flat
Human Siglec-9 (human) [3] = target: Human Siglec-9 (human) (UniProt Q9Y336); experiment: flow cytometry on fresh purified human NK cells (CD3-/CD56+), isotype control staining

Chain of Human Siglec-7 (human) (Q9Y286 19-467): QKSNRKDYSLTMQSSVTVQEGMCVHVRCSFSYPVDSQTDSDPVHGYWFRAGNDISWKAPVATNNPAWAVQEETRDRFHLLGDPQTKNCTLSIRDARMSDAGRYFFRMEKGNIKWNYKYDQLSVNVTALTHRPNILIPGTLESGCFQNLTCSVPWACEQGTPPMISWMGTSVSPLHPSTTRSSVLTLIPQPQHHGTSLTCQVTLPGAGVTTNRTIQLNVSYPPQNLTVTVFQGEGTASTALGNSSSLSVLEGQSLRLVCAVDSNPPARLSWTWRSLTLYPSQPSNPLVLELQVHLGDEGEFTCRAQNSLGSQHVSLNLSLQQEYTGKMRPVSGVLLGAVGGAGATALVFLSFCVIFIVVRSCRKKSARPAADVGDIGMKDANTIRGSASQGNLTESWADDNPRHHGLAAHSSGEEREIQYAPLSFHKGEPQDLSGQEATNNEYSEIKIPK

percent of NK cells in quadrant Q1 (APC positive, PE negative) (Human Siglec-7 (human)): 0.975% | percent of NK cells in quadrant Q2 (APC positive, PE positive) (Human Siglec-7 (human)): 0.34%
Substance: Isotype control - APC (antibody)

EC50 (Human Siglec-9 (human) [1]): 1.22 µg/mL | EC50 (Human Siglec-9 (human) [2]): 2.24 µg/mL
Substance: Isotype control (antibody)

percent of NK cells in quadrant Q2 (APC positive, PE positive) (Human Siglec-9 (human) [3]): 0.34% | percent of NK cells in quadrant Q3 (PE positive, APC negative) (Human Siglec-9 (human) [3]): 2.54%
Substance: Isotype control - PE (antibody)
